Among the data in the supplement of paper PMC12042874 are amyloid nucleation score values, retold here.

± gives the uncertainty stated by the source.

The data set can be described thus: amyloid nucleation score (Sup35N fusion, yeast selection) (log enrichment); library NNK3; higher = more nucleation; inactive = no reads after selection. Put shortly:
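After 24 hours of induction with 100 μM copper sulfate, psi-negative yeast expressing peptides of 20 random codons fused to Sup35N were grown for 7 days at 30°C on medium lacking adenine and uracil. Input and output plasmid inserts were sequenced with Illumina, and sequences with under 100 input reads were discarded. Scores for nucleation are the DiMSum log enrichment of output over input reads, centred on the mode score of non-aggregating sequences.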
Take LRWFAFSKSNIALGL: the amyloid nucleation score result is “inactive”.

On to QYLWPAKFFQTLYIVGCTTP, for which the amyloid nucleation score result is “inactive”. As for GMTDNVPLGVKVKREMCQFA, the amyloid nucleation score result is “inactive”. Consider TILSPMASSQNKCDKNPMLS, for which the amyloid nucleation score worked out at 1.19 ± 0.073. With WNFWNNFKSLEWEVLARYFF, the amyloid nucleation score entry was “inactive”.

For the substance RSRNAAVDFCLPSSPWSSSV, the amyloid nucleation score result was “inactive”. Substance VTLTLEGLDRWVNQSEIAPS gave an amyloid nucleation score of 0.071 ± 0.29. Consider SKARQEL, for which the amyloid nucleation score entry is “inactive”.

YRLRNCFRHMPAAQTFTP: the amyloid nucleation score result was “inactive”. Under VLVIGMWKTFYNYMQILCQA stands “inactive”. For LVLTSPFRYSIV, the amyloid nucleation score result is “inactive”. In turn, VVSTNVYGGLTMASYCGALP came in with an amyloid nucleation score of 1.24 ± 0.16. RENSKFFLIRC: the amyloid nucleation score result was “inactive”. Take LYMVINYMKCVARHGTQNDR: the amyloid nucleation score entry is “inactive”. Under SIFLDEIDFKIT stands 0.409 ± 0.16; under FFLWVYLLKSFSS, “inactive”. Regarding AGCAIALLYGWESLRAVFL, the amyloid nucleation score entry is “inactive”. Then CVSEKQWLSVVVELVFWGCG, with -0.821 ± 1.3; and YYSFFDIFCVITSRANFGRP, with 1.28 ± 0.17. In the case of YHCWSDLDKSLELLSQLMFR, the amyloid nucleation score result is “inactive”.

With LRMFSRVGRNRCYNITSFTC, the amyloid nucleation score entry is “inactive”.

With MVGGVHCLSSVLRRWAAGRR, the amyloid nucleation score was -0.676 ± 1.7. In the case of EMTMTWCMVVRLVWVTNGIL, the amyloid nucleation score entry was “inactive”. TRLLVWSETIAVWVRLQN: the amyloid nucleation score entry is “inactive”. APRGVSTDLDAVHRWYYSGR yielded an amyloid nucleation score of -0.025 ± 0.88. Take KLYELDAVMMAWVIMY: the amyloid nucleation score entry was “inactive”. Turning to RLRRLCYSSGELDALGLCVW, the amyloid nucleation score stood at 0.261 ± 0.42. In turn, SQCFIY showed an amyloid nucleation score of -0.514 ± 0.78. For the substance FLLVR, the amyloid nucleation score entry was “inactive”. With YVILPLEAPFS, the amyloid nucleation score amounted to 1.49 ± 0.095. Under NIVQYVWVDDWVFRCRCGAK stands 3.15 ± 0.069; under FLDQLSVHMQCISLEFNFGV, 2.42 ± 0.068. Turning to CLFYLCRARMMFNWPSCTRG, the amyloid nucleation score was determined as 0.933 ± 0.22.

SGVSWTRPIWYLNWFTQSLW: the amyloid nucleation score result is “inactive”. FMFNRGAAFNHFTGHTCITY: the amyloid nucleation score result is “inactive”. Turning to PLMRTGEDISPERQRDGRGK, the amyloid nucleation score result was “inactive”. Substance RLYSLSSRCNLNRATPPTKS registered an amyloid nucleation score of -0.041 ± 0.75. Under IVWPIIRAHS stands -0.313 ± 0.93; under YLLDRLRVSDGYPLQSPWTT, “inactive”; under LFVNNVVFHFIFLCPVHRTV, 2.75 ± 0.06.

As for FVESIAVLKLFNTVKWITFF, the amyloid nucleation score entry is “inactive”. Turning to EGSDIA, the amyloid nucleation score entry was “inactive”. Consider ALFAGLIECQCDNILGPETG, for which the amyloid nucleation score result was “inactive”. With VYYFRQLFPICIDNQARTWC, the amyloid nucleation score result was “inactive”. In turn, QLNGCHWCTMLSVVFCSRGV yielded an amyloid nucleation score of 2.72 ± 0.069. Then PCRMKLVFFRDE, with “inactive”; and SGVYLNVIWNCDIGDING, with 1.49 ± 0.12; and SSWNTTYMESSVPVGYLFRI, with “inactive”. Turning to LRQGWILVA, the amyloid nucleation score result is “inactive”. Under DFDNLFYTTLNSQFPRTRFV stands “inactive”; under WKYRSKRWMMLSASVRLYSS, “inactive”. Consider DLFWLGFNWHLGCRFYVGAN, for which the amyloid nucleation score result is “inactive”. For SMAMFIFMITLVCYFKDSPW, the amyloid nucleation score result was “inactive”. Consider RYRGMGQNMT, for which the amyloid nucleation score result was “inactive”.

With DHVLNRPYYDNNLKYYDTWL, the amyloid nucleation score entry was “inactive”. Turning to IFVLLVRANV, the amyloid nucleation score is -0.449 ± 0.7.

As for RGLLEANMLGSSGDPSVNSG, the amyloid nucleation score entry is “inactive”.

On to YSCYSSLL, for which the amyloid nucleation score entry was “inactive”.

Regarding SSLLVRVRIYMGMMLLTIVR, the amyloid nucleation score entry is “inactive”. Then LHITYGSFCTLVFLIIVRWF, with “inactive”; and SQLLYI, with “inactive”. LLFSAKGFECLMFVNRLYLA: the amyloid nucleation score entry is “inactive”.

In the case of IGRVNSSGVQDGSHCYECES, the amyloid nucleation score is 0.481 ± 0.27. Regarding VITGLIMMLNCIGFVFRGLA, the amyloid nucleation score entry was “inactive”. As for RLIYLWVPYCNMCRCGLLCK, the amyloid nucleation score result was “inactive”. Then FQAYDSWNNWSSGFILKYSI, with “inactive”.

On to LYHRAIGRSRQRENPSQKGG, for which the amyloid nucleation score was -0.048 ± 0.39.

For HEELQKIMIFSCMCYLQVLT, the amyloid nucleation score result is “inactive”.

MCMSVCFSK: the amyloid nucleation score entry is “inactive”. In the case of VSCYSRYRVVVHRGSVVISR, the amyloid nucleation score entry is “inactive”. Turning to NWVAKMGFVHGSSKRYSPPK, the amyloid nucleation score was 0.111 ± 0.61.

As for FVTVVGGLRWNVTFSERWSV, the amyloid nucleation score was found to be 0.081 ± 0.61. With GSCCNQG, the amyloid nucleation score entry is “inactive”. With DWFSAVR, the amyloid nucleation score entry is “inactive”. GLHIRFQNYLRQGQ showed an amyloid nucleation score of 1.22 ± 0.17. In the case of IVNLL, the amyloid nucleation score result is “inactive”. Take MGAANSWETDKF: the amyloid nucleation score entry is “inactive”. For the substance EVYKYKSEERMVAST, the amyloid nucleation score result was “inactive”. In the case of VDSWSRGQVSQLGRSQWADI, the amyloid nucleation score was 0.68 ± 0.31. As to LFQIM, the amyloid nucleation score result was “inactive”. For ELSSLSFHIHNMEFREKVKG, the amyloid nucleation score result is “inactive”. With YYVYSRGALLYHYILQMARL, the amyloid nucleation score result is “inactive”. Take SASGGFVLFLWLVCEGTFAG: the amyloid nucleation score was found to be 0.069 ± 0.38. Take LIQVIGLSIALRTMSCLRGS: the amyloid nucleation score entry was “inactive”. Under VSCYVTHISYRSSFGSMFYS stands “inactive”. Take GSMMSCWRLAESWVVSKPPG: the amyloid nucleation score entry was “inactive”.

For the substance WSGNCFNQSKLAWYDHYHQW, the amyloid nucleation score entry is “inactive”. Take RANLSDFYYSSSIDLKLPLT: the amyloid nucleation score entry is “inactive”. For SGVYHRICSISLYQVSMR, the amyloid nucleation score result was “inactive”. Under LWKLSSNSYWFVSCNGLKYS stands “inactive”.

AIEKGHK: the amyloid nucleation score came to 0.235 ± 0.19. Take SKRFSLGI: the amyloid nucleation score result is “inactive”. With VYSLMGS, the amyloid nucleation score result is “inactive”. As to LLTGFLSKVSGQS, the amyloid nucleation score result was “inactive”. With YVKPIGYTIFLWTGLGSP, the amyloid nucleation score result is “inactive”. Then RYRSVNVYWIAVLRTWSAVI, with “inactive”. Then GLNGIDLKLSVAGFVVFLGR, with 1.48 ± 0.14. On to AANVESPKIYKWCINKRGMV, for which the amyloid nucleation score entry was “inactive”.

RVMRMLSIVWFRWNEIVIFL: the amyloid nucleation score entry is “inactive”. As to SIGVTCAPNNLHGCLILYRF, the amyloid nucleation score result was “inactive”. Take MSELWWAPSFKYQLFSHFIK: the amyloid nucleation score result is “inactive”.

Turning to YVLMGAYASVL, the amyloid nucleation score entry is “inactive”. Under RSFVVESPDKYHPIVMFGTD stands “inactive”. In the case of FQLSPTDRVYRDRSAYDVEG, the amyloid nucleation score result was “inactive”. Turning to FSSVGRDDYCNGLM, the amyloid nucleation score result is “inactive”. IQYLLLLSTTARFLWKCFSL displayed an amyloid nucleation score of 0.37 ± 0.28. SNDCRVTVTVFSIGRDSYVL: the amyloid nucleation score was determined as 2.28 ± 0.089. VYGSQGYRGRCFHLCYYYRS: the amyloid nucleation score result was “inactive”. Then KDVYCRGVGG, with “inactive”. Turning to IYPLAKFSLHLVYTDRVSIF, the amyloid nucleation score was found to be 0.352 ± 0.19.

As to SPVRVDWFSKRFSGYVMRTM, the amyloid nucleation score entry was “inactive”.

For VYRQVLRET, the amyloid nucleation score result is “inactive”. As to VRTFEAVLCVPIRLDWVRDR, the amyloid nucleation score result is “inactive”. As to SSWPTTGRWE, the amyloid nucleation score entry was “inactive”. Turning to ESRFCTYVSSRDYISTIQFN, the amyloid nucleation score entry is “inactive”. For AYRLEPT, the amyloid nucleation score entry is “inactive”. Substance YGIVYSCCIVSVIEDFKLLK had an amyloid nucleation score of 2.57 ± 0.082. Consider SFYGHVHMDTCCN, for which the amyloid nucleation score result was “inactive”. With VLGNFSSFVAAKVARRS, the amyloid nucleation score result is “inactive”.

For DLVVNGSFNTDTCFETVSVH, the amyloid nucleation score entry was “inactive”. In the case of PINWECWDQELEGLHDMQAI, the amyloid nucleation score entry was “inactive”. Turning to SWFGYSVIDAKYGDIRTPVK, the amyloid nucleation score result was “inactive”.

With RMIRNDFMITLEWGDSGGYH, the amyloid nucleation score was 1.28 ± 0.097.

Take ILVYSVLIV: the amyloid nucleation score result is “inactive”. With LSHPTPQSCRHFVFNLKLSA, the amyloid nucleation score entry is “inactive”.

The substance YLLVFCSNF yielded an amyloid nucleation score of 2.29 ± 0.091. Take LLIVFLIFRMLRLAGASI: the amyloid nucleation score entry was “inactive”. Under TLKRWLNLDRSSYIRESIKR stands “inactive”; under FVIGRI, “inactive”. With RFYLIKPAI, the amyloid nucleation score entry was “inactive”. Then IEGSKSDNIGIVHDFMFES, with “inactive”; and PCSGLKCSKGCWCNKICKYK, with 1.37 ± 0.13.
